Literature values as cited in patent publication US20030092000.

Experiments:
Conditions in all cases: method not stated
[1] = system: FAD 1B (designed three-finger ZFP) (synthetic)
[2] = system: FAD 1A (designed three-finger ZFP) (synthetic)
[3] = system: FAD 4A (designed three-finger ZFP) (synthetic)
[4] = system: FAD 4B (designed three-finger ZFP) (synthetic)
[5] = system: FAD 2A (designed three-finger ZFP) (synthetic)
[6] = system: FAD 3B (designed three-finger ZFP) (synthetic)
[7] = system: FAD 3A (designed three-finger ZFP) (synthetic)
[8] = system: FAD 5A (designed three-finger ZFP) (synthetic)

GAGGTAGAGG (double strand) [FAD 1 target]
Kd [1]: 0.01 µM
Kd [2]: 0.01 µM

GAGGTGGAAG (double strand) [FAD 4 target]
Kd [3]: 0.01 µM
Kd [4]: 0.002 µM

GTCGTGTGGA (double strand) [FAD 2 target]
Kd [5]: 0.1 µM

GTTGAGGAAG (double strand) [FAD 3 target]
Kd [6]: 0.1 µM
Kd [7]: 0.1 µM

TAGGTGGTGA (double strand) [FAD 5 target]
Kd [8]: 0.01 µM
